From US20230355720A1, “PHARMACEUTICAL COMPOSITION FOR PREVENTING OR TREATING BONE DISEASES, COMPRISING TRIPLE AGONIST OR CONJUGATE THEREOF HAVING ACTIVITY WITH RESPECT TO ALL OF GLUCAGON, GLP-1 AND GLP RECEPTORS” (HANMI PHARM. CO., LTD., priority 2020, published 2023)
Bridge positions count the residues as written; N and C are the ends. Square brackets hold non-standard residues; d marks the D form. Ends that are not written are not given here. * marks the point of attachment. Acetyl(2-(4-imidazolyl)) = O=C(Cc1c[nH]cn1)*; Aib = CC(C)(N)C(=O)O

T1: human GIP receptor (human, UniProt P48546 22-466)
T1 sequence (looked up): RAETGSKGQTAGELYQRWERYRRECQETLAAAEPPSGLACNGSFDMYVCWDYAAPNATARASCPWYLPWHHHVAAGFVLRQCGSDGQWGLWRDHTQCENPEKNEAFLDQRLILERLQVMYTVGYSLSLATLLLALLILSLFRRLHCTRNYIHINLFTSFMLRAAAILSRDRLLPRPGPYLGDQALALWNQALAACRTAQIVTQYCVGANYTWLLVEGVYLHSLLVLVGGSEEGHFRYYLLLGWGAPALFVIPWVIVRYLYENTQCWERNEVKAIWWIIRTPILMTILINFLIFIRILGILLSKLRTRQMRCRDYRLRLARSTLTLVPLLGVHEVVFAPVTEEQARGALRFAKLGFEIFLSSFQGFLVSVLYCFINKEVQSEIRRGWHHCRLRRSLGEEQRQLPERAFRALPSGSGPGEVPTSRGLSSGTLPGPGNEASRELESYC

B1: triple agonist of SEQ ID NO: 82 (peptide)
peptide: {Acetyl(2-(4-imidazolyl))}-[Aib]QGTFTSDYSKYLDEKRQKEFVQWLLDTC
modifications: bridge 15-19; numbers in words are those of the source; also: ring between positions 16 and 20, type not given here
B2: triple agonist of SEQ ID NO: 81 (peptide)
peptide: {Acetyl(2-(4-imidazolyl))}-[Aib]QGTFTSDYSKYLDEKRQKEFVQWLLNTC
modifications: bridge 15-19; numbers in words are those of the source; also: ring between positions 16 and 20, type not given here

How the values were obtained:
Assay in all cases: cell-based or functional assay
human GIP receptor = biological target: T1, human GIP receptor
human GLP-1 receptor = human GLP-1 receptor (human, UniProt P43220 24-463)
human GCG receptor = human GCG receptor (human, UniProt P47871 26-477)
Chain of human GCG receptor (P47871 26-477): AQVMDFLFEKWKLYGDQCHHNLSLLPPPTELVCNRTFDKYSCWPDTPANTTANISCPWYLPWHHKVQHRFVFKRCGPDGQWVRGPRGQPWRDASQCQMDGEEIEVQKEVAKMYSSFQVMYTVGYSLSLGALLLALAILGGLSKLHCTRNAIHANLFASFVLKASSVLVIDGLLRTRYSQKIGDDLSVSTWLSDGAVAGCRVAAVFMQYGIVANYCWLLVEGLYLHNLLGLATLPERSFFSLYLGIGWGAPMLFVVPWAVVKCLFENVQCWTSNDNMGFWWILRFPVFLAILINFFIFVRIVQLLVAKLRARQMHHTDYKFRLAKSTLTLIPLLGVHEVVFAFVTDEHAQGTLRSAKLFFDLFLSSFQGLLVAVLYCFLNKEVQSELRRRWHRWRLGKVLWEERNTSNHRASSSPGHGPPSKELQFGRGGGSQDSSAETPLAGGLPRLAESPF

Binder	In vitro activity (%) compared with native peptide, vs GIP (human GIP receptor) [%]	In vitro activity (%) compared with native peptide, vs GLP-1 (human GLP-1 receptor) [%]	In vitro activity (%) compared with native peptide, vs Glucagon (human GCG receptor) [%]
[Acetyl(2-(4-imidazolyl))][Aib]QGTFTSDYSIAMDEIACKDFVNWLLNTK (bridge 16-20; not fully specified) [triple agonist of SEQ ID NO: 61]	2.8	59.8	< 0.1
[Acetyl(2-(4-imidazolyl))][Aib]QGTFTSDKSKYLDERAAQDFVQWLLDGGPSSGAPPPS (not fully specified) [triple agonist of SEQ ID NO: 62]	< 0.1	5.2	< 0.1
[Acetyl(2-(4-imidazolyl))][Aib]EGTFTSDYSIAMDEIHQKDFVNWLLAQC (bridge 16-20; not fully specified) [triple agonist of SEQ ID NO: 83]	0.4	47.3	1.3
H[Aib]EGTFTSDYSIAMDEIHQKDFVNWLLAQKC (bridge 16-20; not fully specified) [triple agonist of SEQ ID NO: 79]	1.4	41.5	4.9
{Acetyl(2-(4-imidazolyl))}-[Aib]QGTFTSDYSKYLDECRAKEFVQWLLDHHPSSGQPPPS (bridge 15-19) [triple agonist of SEQ ID NO: 73]	3	22.6	5.4
H[Aib]QGTFTSDYSKYLDEKRQKEFVQWLLDTKC (bridge 16-20; also: ring between positions 16 and 20, type not given here) [triple agonist of SEQ ID NO: 78]	0.12	51	14
Y[Aib]QGTFTSDYSKYLDEKAAKDFVQWLLDHHPSSGQPPPSC (bridge 16-20; also: ring between positions 16 and 20, type not given here) [triple agonist of SEQ ID NO: 77]	35.5	38.7	12.2
B1	< 0.1	9.5	1.1
Y[Aib]QGTFTSDYSKYLDECAAKEFVQWLLDHHPSSGQPPPS (bridge 16-20) [triple agonist of SEQ ID NO: 64]	92.9	64.6	60.1
Y[Aib]QGTFTSDYSKCLDEKRAKDFVQWLLDHHPSSGQPPPS (bridge 16-20) [triple agonist of SEQ ID NO: 70]	64.4	15.1	71.3
Y[Aib]QGTFTSDYSKYLDECRAKDFVQWLLDHHPSSGQPPPS (bridge 16-20) [triple agonist of SEQ ID NO: 66]	17.2	15.8	172
Y[Aib]QGTFTSDYSKYLDERACKDFVQWLLDHHPSSGQPPPS (bridge 16-20) [triple agonist of SEQ ID NO: 71]	94.7	90.1	12.7
[Acetyl(2-(4-imidazolyl))][Aib]QGTFTSDCSKYLDERAAQDFVQWLLDGGPSSGAPPPS (not fully specified) [triple agonist of SEQ ID NO: 63]	< 0.1	15.3	< 0.1
H[Aib]QGTFTSDVSKYLDGQAAQEFVAWLLKGC [triple agonist of SEQ ID NO: 8]	< 0.1	14.2	0.1
{Acetyl(2-(4-imidazolyl))}-[Aib]QGTFTSDYSKCLDEKRAKEFVQWLLDHHPSSGQPPPS (bridge 15-19) [triple agonist of SEQ ID NO: 74]	1	12.9	0.9
Y[Aib]QGTFTSDYSKCLDEKAAKEFVQWLLDHHPSSGQPPPS (bridge 16-20) [triple agonist of SEQ ID NO: 68]	107	27.9	8.8
Y[Aib]QGTFTSDYSKCLDERAAKEFVQWLLDHHPSSGQPPPS (bridge 16-20) [triple agonist of SEQ ID NO: 69]	62.8	24.3	9.6
Y[Aib]QGTFTSDYSKYLDEKRAKDFVQWLLDHHPSSGQPPPSC (bridge 16-20; also: ring between positions 16 and 20, type not given here) [triple agonist of SEQ ID NO: 76]	11.7	10.3	47.6
B2	< 0.1	7.8	0.3
Y[Aib]QGTFTSDYSKYLDEKAAKEFVQWLLDHHPSSGQPPPSC (bridge 16-20) [triple agonist of SEQ ID NO: 75]	18	35.1	8.5
H[Aib]QGTFTSDVSKYLDGQAAKEFVAWLLKGC [triple agonist of SEQ ID NO: 7]	< 0.1	13.7	< 0.1
Y[Aib]QGTFTSDYSKYLDECAAKDFVQWLLDHHPSSGQPPPS (bridge 16-20) [triple agonist of SEQ ID NO: 67]	39.8	28.5	46.2
Y[Aib]QGTFTSDCSKYLDERAAKDFVQWLLDHHPSSGQPPPS (bridge 16-20) [triple agonist of SEQ ID NO: 72]	1.6	11.5	1
H[Aib]QGTFTSDYSKCLDEKRAKEFVQWLLDHHPSSGQPPPS (bridge 16-20) [triple agonist of SEQ ID NO: 65]	11.6	95.4	25.2
